T1: recombinant human LAG-3-his protein (Novoprotein) (human, UniProt P18627 23-450)
T1 construct: Bought; also called huLAG-3; not shown: His tag
T1 sequence (looked up): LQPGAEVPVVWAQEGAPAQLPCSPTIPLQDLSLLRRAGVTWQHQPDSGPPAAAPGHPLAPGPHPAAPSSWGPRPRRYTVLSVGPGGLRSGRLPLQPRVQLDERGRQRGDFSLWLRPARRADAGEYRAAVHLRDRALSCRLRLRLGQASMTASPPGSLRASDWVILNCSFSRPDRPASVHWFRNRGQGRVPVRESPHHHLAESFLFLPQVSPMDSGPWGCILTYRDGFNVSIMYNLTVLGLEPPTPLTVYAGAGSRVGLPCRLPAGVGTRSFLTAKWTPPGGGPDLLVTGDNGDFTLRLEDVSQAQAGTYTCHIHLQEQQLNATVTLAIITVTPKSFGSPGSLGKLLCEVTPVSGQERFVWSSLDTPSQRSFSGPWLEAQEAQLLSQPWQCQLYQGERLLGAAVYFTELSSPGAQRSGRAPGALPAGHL

B1: HumAb747-52 (antibody, human IgG1, V domains shown)
VH: EVQLVQSGAEVKKPGATVKLSCKASDFNIKDDYMHWVQQAPGKGLEWIGWIVPENGNTEYASKFQGRVTITADTSTDTAYLELSSLRSEDTAVYYCTVYGDYWGQGTTVTVSS
VL: DIQMTQSPSSLSASVGDRVTITCRASQEISGYLSWLQQKPGGAIKRLIYAASTLDSGVPSRFSGSRSGSDYTLTISSLQPEDFADYYCLQYASYPLTFGQGTKLELK
notes: humanized mAb747; human IgG1/kappa constant domains
B2: HumAb747-53 (antibody, human IgG1, V domains shown)
VH: EVQLVQSGAEVKKPGATVKLSCTASDFNIKDDYMHWVQQAPGKGLEWIGWIVPENGNTEYASKFQGRVTITADTSTDTAYLELSSLRSEDTAVYYCTVYGDYWGQGTTVTVSS
VL: DIQMTQSPSSLSASVGDRVTITCRASQEISGYLSWLQQKPGGAIKRLIYAASTLDSGVPSRFSGSRSGSDYTLTISSLQPEDFADYYCLQYASYPLTFGQGTKLELK
notes: as for B1
B3: HumAb747V-62 (antibody, human IgG1, V domains shown)
VH: EVQLVQSGAEVKKPGATVKLSCTASGFNIKDDYMHWVKQRPEQGLDWIGWIVPRNGNTMYASKFQGKATITADTSTNTAYLELSSLRSEDTAVYYCTVYGDYWGQGTTVTVSS
VL: DIQMTQSPSSLSASVGDRVTITCRASQEISGYLSWLQQKPGGAIKRLIYAASTLDLGVPSRFSGSRSGSDYTLTISSLQPEDFADYYCLQYASYPLTFGQGTKLELK
notes: engineered HumAb747-60 variant; human IgG1/kappa constant domains
B4: HumAb747V-64 (antibody, human IgG1, V domains shown)
VH: EVQLVQSGAEVKKPGATVKLSCTASGFNIKDDYMHWVKQRPEQGLDWIGWIVPRNGNTMYASKFQGKATITADTSTNTAYLELSSLRSEDTAVYYCTVYGDYWGQGTTVTVSS
VL: DIQMTQSPSSLSASVGDRVTITCRASQEISGYLSWLQQKPGGAIKRLIYAASALDLGVPSRFSGSRSGSDYTLTISSLQPEDFADYYCLQYASYPLTFGQGTKLELK
notes: as for B3
B5: HumAb747V-63 (antibody, human IgG1, V domains shown)
VH: EVQLVQSGAEVKKPGATVKLSCTASGFNIKDDYMHWVKQRPEQGLDWIGWIVPRNGNTMYASKFQGKATITADTSTNTAYLELSSLRSEDTAVYYCTVYGDYWGQGTTVTVSS
VL: DIQMTQSPSSLSASVGDRVTITCRASQEISGYLSWLQQKPGGAIKRLIYAASALDSGVPSRFSGSRSGSDYTLTISSLQPEDFADYYCLQYASYPLTFGQGTKLELK
notes: as for B3
B6: HumAb747V-65 (antibody, human IgG1, V domains shown)
VH: EVQLVQSGAEVKKPGATVKLSCTASGFNIKDDYMHWVKQRPEQGLDWIGWIVPRNGNTMYASKFQGKATITADTSTNTAYLELSSLRSEDTAVYYCTVYGDYWGQGTTVTVSS
VL: DIQMTQSPSSLSASVGDRVTITCRASQEISGYLSWLQQKPGGAIKRLIYAASTLDSGVPSRFSGSRSGSDYTLTISSLQPEDFADYYCLQYASYPLTFGQGTKLELK
notes: as for B3
B7: HumAb747V-61 (antibody, human IgG1, V domains shown)
VH: EVQLVQSGAEVKKPGATVKLSCTASDFNIKDDYMHWVKQRPEQGLDWIGWIVPENANTEYASKFQGKATITADTSTNTAYLELSSLRSEDTAVYYCTVYGDYWGQGTTVTVSS
VL: DIQMTQSPSSLSASVGDRVTITCRASQEISGYLSWLQQKPGGAIKRLIYAASTLDSGVPSRFSGSRSGSDYTLTISSLQPEDFADYYCLQYASYPLTFGQGTKLELK
notes: human IgG1/kappa constant domains
B8: HumAb747V-66 (antibody, human IgG1, V domains shown)
VH: EVQLVQSGAEVKKPGATVKLSCTASGFNIKDDYMHWVKQRPEQGLDWIGWIVPENGNTVYASKFQGKATITADTSTNTAYLELSSLRSEDTAVYYCTVYGDYWGQGTTVTVSS
VL: DIQMTQSPSSLSASVGDRVTITCRASQEISGYLSWLQQKPGGAIKRLIYAASTLDLGVPSRFSGSRSGSDYTLTISSLQPEDFADYYCLQYASYPLTFGQGTKLELK
notes: as for B3
B9: B3-21-IgG (antibody, V domains shown)
VH: EVQLVQSGAEVKKPGASVKVSCKASDFNIKDDYMHWVRQAPGQGLEWIGWIVPENGNTEYASKFQGRVTITADTSINTAYMELSRLRSDDTAVYYCTVYGDVWGQGTTVTVSS
VL: DIQMTQSPSSLSASVGDRVTINCRAMQEISGYLSWLQQKPEGTIKRLIYAASTLDSGVPSRFSGSRSGSDYTLTISSLQPEDFATYYCLQYAYYPLTFGGGTKVEIK
notes: as for B7
B10: B3-48-IgG (antibody, V domains shown)
VH: EVQLVQSGAEVKKPGASVKVSCKASDFSIKDDYMHWVRQAPGQGLEWIGWIVPENGKTEYASKFQGRVTITADTSINTAYMELSRLRSDDTAVYYCTVYGDYWGQGTTVTVSS
VL: DIQMTQSPSSLSASVGDRVTINCRASQEISGYLSWLQQKPEGTIKRLIYAAMTLDSGVPSRFSGSRSGSDYTLTISSLQPEDFATYYCLQYASYPLTFGGGTKVEIK
notes: as for B7
B11: B3-46-IgG (antibody, V domains shown)
VH: EVQLVQSGAEVKKPGASVKVSCKASGFNIKDDYMHWVRQAPGQGLEWIGWIVPENGLTEYASKFQGRVTITADTSINTAYMELSRLRSDDTAVYYCTVYGDYWGQGTTVTVSS
VL: DIQMTQSPSSLSASVGDRVTINCRASQEISGYLSWLQQKPEGTIKRLIYATSTLDSGVPSRFSGSRSGSDYTLTISSLQPEDFATYYCLQYASYPLTFGGGTKVEIK
notes: as for B7
B12: B2-53-IgG (antibody, V domains shown)
VH: EVQLVQSGAEVKKPGASVKVSCKASGFNIKDDYMHWVRQAPGQGLEWIGWIVPENGNTVYASKFQGRVTITADTSINTAYMELSRLRSDDTAVYYCTVYGDYWGQGTTVTVSS
VL: DIQMTQSPSSLSASVGDRVTINCRASQEISGYLSWLQQKPEGTIKRLIYAASALDSGVPSRFSGSRSGSDYTLTISSLQPEDFATYYCLQYASYPLTFGGGTKVEIK
notes: human IgG1/kappa constant domains; also called B82-53
B13: B3-69-IgG (antibody, V domains shown)
VH: EVQLVQSGAEVKKPGASVKVSCKASGFNIKDDYMHWVRQAPGQGLEWIGWIVPENGNTHYASKFQGRVTITADTSINTAYMELSRLRSDDTAVYYCTVYGDYWGQGTTVTVSS
VL: DIQMTQSPSSLSASVGDRVTINCRASQEISGYLSWLQQKPEGTIKRLIYEASTLDSGVPSRFSGSRSGSDYTLTISSLQPEDFATYYCLQYASYPLTFGGGTKVEIK
notes: as for B7
B14: B3-43-IgG (antibody, V domains shown)
VH: EVQLVQSGAEVKKPGASVKVSCKASGFNIKDDYMHWVCQAPGQGLEWIGWIVPENGNTEYASKFQGRVTITADTSINTAYMELSRLRSDDTAVYYCTVYGDYWGQGTTVTVSS
VL: DIQMTQSPSSLSASVGDRVTINCRASQEISGYLSWLQQKPEGTIKRLIYAASHLDSGVPSRFSGSRSGSDYTLTISSLQPEDFATYYCLQYASYPLTFGGGTKVEIK
notes: as for B7

The first assay concerns the target T1, recombinant human LAG-3-his protein …. The assay can be described thus: BLI Octet, Ab on AHC sensor, huLAG-3-his; test group 2. How it is done:
(§1) All 18 humanized antibodies (Table 34) and a chimeric antibody having the parental murine VH and VL domains (mAb747c) were ranked by dissociation rate constant (koff). Briefly, antibodies were characterized for affinities and binding kinetics by Octet®RED96 biolayer interferometry (Pall ForteBio LLC). Antibodies were captured by Anti-hIgG Fc Capture (AHC) Biosensors (Pall) at a concentration of 100 nM for 30 seconds. Sensors were then dipped into running buffer (1× pH7.2 PBS, 0.05% Tween 20, 0.1% BSA) for 60 seconds to check baseline. Binding was measured by dipping sensors into a single concentration of recombinant human LAG-3-his protein (Novoprotein). Dissociation was followed by dipping sensors into running buffer for 1200 seconds. The association and dissociation curves were fitted to a 1:1 Langmuir binding model using FortéBio Data Analysis software (Pall). In each test group, the off-rates of antibodies were able to be compared with that of mAb747c. The off-rate ratios were calculated by the off-rate of antibody to that of mAb747c of its group and were compared all together. The lower the ratio was, the higher was the affinity of the antibody.
For orientation: Biolayer interferometry detects binding as a change in optical thickness at a sensor tip.
As to B1, the koff is 0.00436 s⁻¹ and the “off-rate ratio to that of mAb747c” value came to 324%.
For B2, in that order: 0.0043 s⁻¹ and 319%.

The next assay shares this target. The assay can be described thus: BLI Octet, Ab on AHC sensor, huLAG-3-his; test group 1. How it is done:
as §1, with “9” for “18”, “25)” for “34)”, “Octet RED96” for “Octet®RED96”, “FortéBio” for “ForteBio”, “Anti-HIgG” for “Anti-hIgG”, “(Pall).” for “(Pall). In each test group, the off-rates of antibodies were able to be compared with that of mAb747c. The off-rate ratios were calculated by the off-rate of antibody to that of mAb747c of its group and were compared all together. The lower the ratio was, the higher was the affinity of the antibody.”
All 13 humanized antibodies (Table 39) and chimeric anti-LAG-3 antibody mAb747c having the parental murine VH and VL domains were ranked by dissociation rate constant (koff) in the same manner described in Example 9.1 supra. In each test group, the off-rates of antibodies were able to be compared with that of mAb747c. The off-rate ratios were calculated by the off-rate of antibody to that of mAb747c of its group and were compared all together. The lower the ratio was, the higher was the affinity of the antibody.
For the molecule B3, the koff was found to be 0.00048 s⁻¹ and the “off-rate ratio to that of mAb747c” value was found to be 78%.
B4: the koff came to 0.00045 s⁻¹ and the “off-rate ratio to that of mAb747c” value worked out at 73%.
For B5, in that order: 0.000522 s⁻¹ and 85%.
For the molecule B6, the koff is 0.000292 s⁻¹ and the “off-rate ratio to that of mAb747c” value was determined as 47%.
Consider B7, for which the koff worked out at 0.000686 s⁻¹ and the “off-rate ratio to that of mAb747c” value came to 112%.
On to B8, for which the koff was 0.000584 s⁻¹ and the “off-rate ratio to that of mAb747c” value amounted to 95%.

For another assay the target is unchanged. The assay is described as above. The source holds these as a separate data set. How it is done: as §1, with “9” for “18”, “25)” for “34)”, “Octet RED96” for “Octet®RED96”, “FortéBio” for “ForteBio”, “Anti-HIgG” for “Anti-hIgG”, “(Pall).” for “(Pall). In each test group, the off-rates of antibodies were able to be compared with that of mAb747c. The off-rate ratios were calculated by the off-rate of antibody to that of mAb747c of its group and were compared all together. The lower the ratio was, the higher was the affinity of the antibody.”
The seven Fab clones were converted to full IgG proteins. Briefly, the VH and VL genes were produced synthetically and then cloned into vectors containing coding sequences for the human IgG1 and human kappa constant domains, respectively. The heavy chain and cognate light chain plasmids were co-transfected into HEK 293E cells, individually. After approximately six days of post-transfection cell culture, the supernatants were harvested and subjected to Protein A affinity chromatography. The affinity of purified antibodies was ranked by Octet® RED96 biolayer interferometry (see, Example 9.1, supra).
B9: the koff turned out to be 0.00198 s⁻¹ and the “off-rate ratio to that of mAb747c” value worked out at 132%.
For B10 the same measures were 0.00285 s⁻¹ and 190%.
For B11 the same measures were 0.00248 s⁻¹ and 165%.
As for B12, the koff is 0.0018 s⁻¹ and the “off-rate ratio to that of mAb747c” value came to 120%.
For B13, in that order: 0.00359 s⁻¹ and 239%.
For B14 the same measures were 0.00588 s⁻¹ and 392%.

In general, koff refers to a measure of how fast the partners let go of each other.

The values above are taken from patent publication US20210188980A1 (SHANGHAI EPIMAB BIOTHERAPEUTICS, published 2021).
